Values joined by “and” are separate entries in the source; they are usually repeats but may differ in a detail not shown here. Identical values can stand only once.

The record followed here is paper PMC7898620.

One experiment addresses RbmA R219A mutant. Put plainly: SEC-MALS. As to conditions: parent: est. 58; read off a plot.
Another experiment has as its target RbmA W119G mutant. Put plainly: SEC-MALS. Conditions: parent: est. 58; read off a plot.
Experiment [1] addresses RbmA W119G mutant (Vibrio cholerae). Put plainly: SEC-SAXS; analytical Superdex 200 increase 3.2/300 column in line with SAXS, 0.075 ml/min; without MgPO4. Conditions: scale: mol monomer per mol dimer.
In a further experiment the target is RbmA W222G mutant. Put plainly: SEC-MALS. Conditions: parent: est. 58; read off a plot.
Experiment [2] deals with RbmA R219A mutant (Vibrio cholerae). Put plainly: SEC-SAXS; analytical Superdex 200 increase 3.2/300 column in line with SAXS, 0.075 ml/min; without MgPO4. As to conditions: scale: mol monomer per mol dimer.
In another experiment the target is RbmA E160A mutant. Put plainly: SEC-MALS. Conditions: parent: est. 58; read off a plot.
In experiment [3] the target is Rugosity and biofilm structure modulator A (RbmA), wild type (Vibrio cholerae). Put plainly: AUC; sedimentation velocity, 40,000 RPM, RbmA 5 mg/ml, absorbance at 250 nm and Rayleigh interference; without MgPO4.
Experiment [4] has the same target. Put plainly: SEC-MALS; ENrich SEC 70 column, 20 mM Tris pH 8.0, 200 mM NaCl, 2 mM DTT, 0.02% NaN3, 240-360 ug protein injected; without MgPO4.
Experiment [5] shares this target. Put plainly: time-resolved SAXS; stopped-flow mixing, 5 mg/ml RbmA in 20 mM Tris/HCl pH 8, 100 mM NaCl with 10 mM potassium phosphate and 2.5 mM MgCl2; followed for 3 hr.

“Rugosity and biofilm structure modulator A (RbmA), wild type R219A”: in the experiment with RbmA R219A mutant, the other: SEC-MALS average molecular weight was determined as 36 kg/mol.
For the substance “Rugosity and biofilm structure modulator A (RbmA), wild type W119G”, the other: SEC-MALS average molecular weight with RbmA W119G mutant was 49 kg/mol.
RbmA W119G mutant (natural protein): the dimer:monomer molar ratio in [1] was 2.5.
On to “Rugosity and biofilm structure modulator A (RbmA), wild type W222G”, for which the other: SEC-MALS average molecular weight in the experiment with RbmA W222G mutant was 58 kg/mol.
As for RbmA R219A mutant (natural protein), the monomer:dimer molar ratio in [2] is 3.5.
Regarding “Rugosity and biofilm structure modulator A (RbmA), wild type E160A”, in the experiment with RbmA E160A mutant, the other: SEC-MALS average molecular weight came to 57 kg/mol.
Regarding “Rugosity and biofilm structure modulator A (RbmA), wild type (natural protein)”, the stoichiometry N in [3] is 4 and 2; in experiment [4], 2; in [5] it was 6.
